According to US20260265360A1, “USE OF ANTI-FAM19A5 ANTAGONISTS FOR TREATING HEARING DISORDERS” (NEURACLE SCIENCE CO., LTD., priority 2023, published 2026):

Legend:
aged mice = experiment: Age-related hearing loss in aged mice; format: in vivo, mouse; conditions: for ABR threshold vs control animals: 30 mg/kg i.v. weekly for eight weeks
Protocol: FIGS. 17A, 17B, 17C, and 17D show the therapeutic effect of FAM19A5 antagonists (1-30) on auditory brainstem response (ABR) threshold in an aged mouse model. FIG. 17A provides a schematic of the experimental design. As shown, anti-FAM19A5 antibody (1-30) or control human IgG antibody was administered to the mice (1-year old) intravenously once a week (30 mg/kg per dose) for a total of eight administrations. ABR (i.e., hearing test) was measured both prior to the initial administration of the antibodies and then at one and two months after administration. FIG. 17B provides the results before injection. FIG. 17C provides the results at one month post administration. FIG. 17D provides the results at two months post administration. In each of FIGS. 16B-16D, ABR threshold was measured at a frequency ranging from 4 kHz to 64 kHz.
FIGS. 18A, 18B, and 18C show the therapeutic effect of FAM19A5 antagonists (1-30) as comparison of wave I amplitude profile in an aged mouse model. The mice were treated as shown and described in FIG. 17A. FIG. 18A provides the results before injection. FIG. 18B provides the results at one month post injection. FIG. 18C provides the results at two months post injection. Tone bursts were measured across 0 and 90 dB.
Next, to assess whether the FAM19A5 antagonists provided herein can also treat age-related hearing loss, aged mice (e.g., about 6 months to 1 year in age) were used. […] Then, various hearing parameters (e.g., ABR threshold, DPOAE amplitude, and ABR waveform analysis) were assessed in the animals at one and two months after initial administration.

[1] = tested on: mouse primary spiral ganglion neurons; experiment: Reversal of FAM19A5-induced inhibition of neurite outgrowth; format: cell-based; conditions: 10 μM FAM19A5 protein co-treated with 100 nM antibody, 3 DIV
Protocol: Sprial ganglion neuron were cultured in culture media consisting of high-glucose (4.5 mg/mL) DMEM, 0.1 mg/ml penicillin, 0.1 mg/mL streptomycin, N2 supplement, and 10 µg/mL insulin and was designated here as “5K” because in this media, [K+]=5.4 mM. A depolarizing media, designated as “30K,” in which Na was replaced with equimolar K to raise [K] to 30 mM while maintaining osmolarity was also used.
Dissociated spiral ganglion cell cultures were prepared from postnatal day 4-5 (P4-5) cochleae and maintained using a procedure modified from the methods described by Bok et al., J Neurosci 23 (3): 777-87 (2003), which is incorporated herein by reference in its entirety. […]
Neurite outgrowth was quantified by measuring the total length of neurites per neuron. Neurons were stained with NF200 at either 2 or 3 DIV, and neurite lengths were measured using the Fiji (Image J). Individual neurons were manually selected, and neurite lengths were determined using the Simple Neurite Tracer plugin.
Briefly, mouse primary spiral ganglion neurons (cultured and processed as described in Example 11) were treated with a FAM19A5 protein (10 μM) alone or in combination with an anti-FAM19A5 antibody (1-30) (100 nM) at 0 DIV (day in vitro). […] Then, at 3 DIV, the neurons were stained for neurofilament protein (NF200) expression and the average neurite length quantified.

FAM19A5 antigen = FAM19A5 antigen (Homo sapiens, UniProt Q7Z5A7); experiment: Cross-competition two-site sandwich ELISA; format: binding; conditions: antibodies 1-65, P2-A03, P2-F11, 13B4, 2-13, 3-2; cross-competition = S/N ratio lower than 2
Sequence of FAM19A5 antigen (Q7Z5A7 44-132): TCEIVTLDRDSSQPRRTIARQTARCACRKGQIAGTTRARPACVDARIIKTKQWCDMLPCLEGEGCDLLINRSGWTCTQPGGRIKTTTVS
Protocol: The term “S/N” refers to the signal to noise ratio, which is measured as follows: [O.D. of 10 ng/ml antigen]/[O.D. of 0 ng/ml antigen].
Next, a two-site sandwich ELISA was used as described below to assess whether the different anti-FAM19A5 antibodies with similar binding epitopes cross-compete with each other.
First, the indicated anti-FAM19A5 antibodies were diluted in 1×PBS to a concentration of 10 μg/mL. The diluted anti-FAM19A5 antibodies (10 μg/mL in 1×PBS) (“capture antibody”) were used to coat the 96-well plates (100 μL/well) at 37° C. for approximately 1 hour. After the incubation, the plates were washed with the washing buffer (0.01% Tween-20/PBS; also called 0.01% PBST) for a total of five washes, blocked with the blocking solution (5% BSA/PBS; also called 5% PBSA) (250 μL/well) for one hour at 37° C., and then washed again. Next, 100 μg/mL of the FAM19A5 antigen (diluted in PBS containing 5% BSA, 0.01% Tween-20; also called 5% PBSAT; “diluent buffer) was added to each of the wells, and the 96-well plates were incubated for 2 hours at 37° C. After the incubations, the plates were washed using 0.01% PBST for a total of five washes. After the final wash, the indicated biotinylated anti-FAM19A5 antibodies (“detection antibody”) (diluted to lug/mL in 5% PBSAT) were added to the relevant wells (100 μL volume) and the plates were incubated for an additional 1 hour at 37° C. Afterwards, the plates were washed again with 0.01% PBST (five total washes). Next, 100 μL of the diluted (1/2000 in 5% PBSAT) Streptavidin-HRP (1 mg/mL, Sigma, USA) was added to the wells, and the plates were incubated for 30 minutes at room temperature. The plates were then washed and treated with 100 μL of the TMB substrate ([…], Thermo Fisher Scientific). After an additional 30-minute incubation at room temperature, the color change reaction was induced by the addition of the TMB substrate. This reaction was stopped using 50 μL of sulfuric acid (2N H2SO4), and the extent of color change was detected via absorption at 450 nm with reference wavelength at 620 nm using a 96 well microplate reader (Molecular Device).

| Molecule | wave I amplitude vs control animals (aged mice; general trend, results not statistically significant) | ABR threshold vs control animals (aged mice; one-month post administration) | ABR threshold vs control animals (aged mice; two-month post administration) | neurite growth in FAM19A5-treated neurons [1] | cross-competition with the other anti-FAM19A5 antibodies (FAM19A5 antigen) |
| --- | --- | --- | --- | --- | --- |
| 1-30: anti-FAM19A5 antibody, de-immunized variant of 3-2; VH SEQ ID NO: 235, VL SEQ ID NO: 240 (antibody, V domains shown, Low-PI VH, 1-30 VH, 1-17 VH, 1-32 VH, 4-11 VH, 6-10 VH; 1-30 VL) VH: AVTLDESGGGLQTPGGALRLSCKASGFDFESFNMFWVRQAPGKGLEYVSQISSSEEDENYAPAVKGRATISRDNGQSTLYLQMNSLRAEDTGTYYCAKSSYDCPYGHCSSGVDSAGEIDAWGHGTEVIVSS VL: ALTQPSSVSANPGETVKITCSGGGSEEEQYYYGWYQQKPGSAPVTLIYQDEERPSDIPSRFSGSTSGSTATLTITGVQAGDEADYYCGSWDSEDEDHFGAGTTLTVL | decreased wave I amplitude | significantly decreased | significantly decreased | less reduction in neurite growth and comparable to the neurons from the control group | – |
| 2-13: anti-FAM19A5 antibody; VH SEQ ID NO: 35, VL SEQ ID NO: 39 (antibody, V domains shown, 2-13 VH; 2-13 VL) VH: AVTLDESGGGLQTPGGALSLVCKASGFTFSSHGMFWVRQTPGKGLEYVAEITNDGSGTNYGSAVKGRATISRDNGQSTVRLQLNNLRAEDTGTYFCARSTYECPGGFSCWGDTGQIDAWGHGTEVIVSS VL: ALTQPSSVSANPGETVKITCSGGSYSYGWFQQKSPGSALVTVIYWDDERPSDIPSRFSGALSGSTNTLTITGVQADDEAVYFCGTEDISGTAGVFGAGTTLTVL | – | – | – | – | did not cross-compete |
